Where two headings read alike, the source gives them in different places.
What was measured:
[1] = target: T1, ALK-1/BMPR-2 receptor pair of the PathHunter U2Os dimerization cells (DiscoverX 93-0962C3) (UniProt P37023 22-503; Q13873 27-1038); assay: cell-based or functional assay
[2] = target: human ALK1 protein (Sino Biological, #10066-H08H) (human, UniProt P37023 22-118); assay: ELISA, coated human ALK1
Procedure: These binders were then tested using an ELISA assay. High binding plates (Corning, 9018) were coated with either 2 μg/ml of human BMPRII protein (Sino Biological, #10551-H08H) or 2 μg/ml of human ALK1 protein (Sino Biological, #10066-H08H) overnight at 4C. The plates were then washed three times with wash buffer (R&D Systems, WA126). […] The plates were then washed three times with wash buffer and DGL antibodies or controls, which were diluted with PBS and 0.1% BSA. The antibodies were incubated for one hour at room temperature and then the plates were washed three times with wash buffer. The plates were then incubated with mouse anti-human IgG Fc secondary—HRP (diluted with PBS/0.1% BSA); 100 ul per well at 2 μg/ml and incubated at room temperature for one hour. The plate was washed three times in wash buffer and then 100 ul TMB (R&D Systems, DY9998B, substrate reagent pack). After the wells turn blue, 50 ul of stop solution (R&D Systems, DY994) was added to each well and the absorbance of the plate was read at 450 nm. results can be found in Table 8.

[3] = target: T1, ALK-1/BMPR-2 receptor pair of the …; assay: cell-based or functional assay; remark: listed apart in the source

Chain of human ALK1 protein (Sino Biological, #10066-H08H) (P37023 22-118 limits assumed): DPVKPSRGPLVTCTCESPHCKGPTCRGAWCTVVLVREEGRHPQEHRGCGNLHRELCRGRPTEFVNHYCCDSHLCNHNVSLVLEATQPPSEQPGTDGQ
T1 sequence (P37023 22-503, chain 1 of 2): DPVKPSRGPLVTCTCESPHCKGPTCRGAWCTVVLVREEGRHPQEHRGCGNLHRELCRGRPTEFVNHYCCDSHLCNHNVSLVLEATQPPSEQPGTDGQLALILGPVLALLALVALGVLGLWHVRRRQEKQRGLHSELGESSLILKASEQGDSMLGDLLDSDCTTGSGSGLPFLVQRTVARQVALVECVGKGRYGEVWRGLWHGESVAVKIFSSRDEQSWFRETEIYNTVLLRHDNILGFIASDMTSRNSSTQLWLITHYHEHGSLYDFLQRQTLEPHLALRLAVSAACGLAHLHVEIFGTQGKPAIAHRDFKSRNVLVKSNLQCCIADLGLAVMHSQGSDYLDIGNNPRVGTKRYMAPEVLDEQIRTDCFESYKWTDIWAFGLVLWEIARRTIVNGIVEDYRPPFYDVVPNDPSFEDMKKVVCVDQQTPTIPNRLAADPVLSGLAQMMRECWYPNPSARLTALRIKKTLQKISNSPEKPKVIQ
T1 sequence (Q13873 27-1038, chain 2 of 2): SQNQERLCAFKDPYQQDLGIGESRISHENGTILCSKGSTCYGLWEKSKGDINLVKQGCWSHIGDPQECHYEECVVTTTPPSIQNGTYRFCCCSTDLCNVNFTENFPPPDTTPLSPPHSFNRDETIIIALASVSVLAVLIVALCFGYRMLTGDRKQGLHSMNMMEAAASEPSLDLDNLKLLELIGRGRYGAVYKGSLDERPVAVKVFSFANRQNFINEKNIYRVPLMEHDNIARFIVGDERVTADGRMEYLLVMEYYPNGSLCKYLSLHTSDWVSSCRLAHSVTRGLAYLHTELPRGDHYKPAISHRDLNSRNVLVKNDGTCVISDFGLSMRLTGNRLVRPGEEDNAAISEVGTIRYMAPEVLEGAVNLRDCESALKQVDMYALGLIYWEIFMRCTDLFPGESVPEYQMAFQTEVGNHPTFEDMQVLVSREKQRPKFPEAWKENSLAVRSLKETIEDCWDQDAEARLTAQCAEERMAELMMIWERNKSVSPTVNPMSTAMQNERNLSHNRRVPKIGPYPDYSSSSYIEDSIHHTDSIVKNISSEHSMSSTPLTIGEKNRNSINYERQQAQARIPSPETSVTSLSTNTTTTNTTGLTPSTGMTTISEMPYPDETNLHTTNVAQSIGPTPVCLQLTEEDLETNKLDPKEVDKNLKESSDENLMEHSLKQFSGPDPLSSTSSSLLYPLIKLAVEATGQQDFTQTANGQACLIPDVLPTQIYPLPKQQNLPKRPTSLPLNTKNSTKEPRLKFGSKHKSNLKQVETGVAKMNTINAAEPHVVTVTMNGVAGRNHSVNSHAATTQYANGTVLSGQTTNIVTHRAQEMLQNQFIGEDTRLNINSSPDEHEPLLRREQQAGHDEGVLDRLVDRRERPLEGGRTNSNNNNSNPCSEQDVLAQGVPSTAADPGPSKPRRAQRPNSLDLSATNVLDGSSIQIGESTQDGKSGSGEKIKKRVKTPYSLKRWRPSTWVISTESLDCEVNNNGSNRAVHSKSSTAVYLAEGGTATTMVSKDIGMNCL

Row | Binder | % Emax BMP9 [1] | Emax (RLU) [1] | Abs450 1 nM [2] | Abs450 10 nM [2] | Abs450 100 nM [2] | % Emax BMP9 [3] | EC50 [3] | Emax (RLU) [3]
1 | DGL267 (bispecific antibody) chain 1: EVQLLESGGGLVQPGGSLRLSCAASGFTFSSYAMSWVRQAPGKGLEWVANINQDGSEKNYVDSMRGRFTISRDNSKNTLYLQMNSLRAEDTAVYYCAREFDYWGQGTLVTVTSSGGGGSGGGGSGGGGSQSVLAQPPSASGTPGQRVTISCSGSSSNIGSNYVYWYQQLPGTAPKLLIYGNNKRPSGVPDRFSGSKSGTSASLAISGLRSEDEADYYCAAWDDSLNGRVFGGGTKLTVLGGGGSGGGGSGGGGSGVECPPCPAPPVAGPSVFLFPPKPKDTLMISRTPEVTCVVVDVSHEDPEVQFNWYVDGVEVHNAKTKPREEQFNSTFRVVSVLTVVHQDWLNGKEYKCKVSNKGLPAPIEKTISKTKGQPREPQVYTLPPCREEMTKNQVSLWCLVKGFYPSDIAVEWESNGQPENNYKTTPPMLDSDGSFFLYSKLTVDKSRWQQGNVFSCSVMHEALHNHYTQKSLSLSPG chain 2: EVQLLESGGGLVQPGGSLRLSCAASGFTFSDYYMTWIRQAPGKGLEWVSSISGGSTYYADSRKGRFTISRDNSENTLYLQMNSLRAEDTAVYYCARDFGVAGWFGQYGMDVWGQGTLVTVSSGGGGSGGGGSGGGGSQSVLTQPPSASGTPGQRVTISCTGSSSNIGAGYDVHWYQQLPGTAPKLLIYRSNQRPSGVPDRFSGSKSGTSASLAISGLRSEDEADYYCSSYAGNYNLVFGGGTKLTVLGGGGSGGGGSGGGGSGVECPPCPAPPVAGPSVFLFPPKPKDTLMISRTPEVTCVVVDVSHEDPEVQFNWYVDGVEVHNAKTKPREEQFNSTFRVVSVLTVVHQDWLNGKEYKCKVSNKGLPAPIEKTISKTKGQPREPQVCTLPPSREEMTKNQVSLSCAVKGFYPSDIAVEWESNGQPENNYKTTPPMLDSDGSFFLVSKLTVDKSRWQQGNVFSCSVMHEALHNHYTQKSLSLSPG |  |  |  |  |  | 46% | 0.9 nM | 1.23e+06 RLU
2 | DGL643 (bispecific antibody) chain 1: EVQLLESGGGLVQPGGSLRLSCAASGFTFSNAWMNWVRQAPGKGLEWVSSISSSSSYIYYADSVKGRFTISRDNSKNTLYLQMNSLRAEDTAVYYCARSNGSGGSDYPLDLWGQGTLVTVTSSGGGGSGGGGSGGGGSQSVLTQPPSASGTPGQRVTISCSGSRSNIGSNSVHWYQQLPGTAPKLLIYGNSNRPSGVPDRFSGSKSGTSASLAISGLRSEDEADYYCQSYDSSLNDHVVFGGGTKLTVLDKTHTCPPCPAPEAAGAPSVFLFPPKPKDTLMISRTPEVTCVVVDVSHEDPEVKFNWYVDGVEVHNAKTKPREEQYNSTYRVVSVLTVLHQDWLNGKEYKCKVSNKALPAPIEKTISKAKGQPREPQVCTLPPSRDELTKNQVSLSCAVKGFYPSDIAVEWESNGQPENNYKTTPPVLDSDGSFFLVSKLTVDKSRWQQGNVFSCSVMHEALHNHYTQKSLSLSPGWSHPQFEK chain 2: not shown | 13% | 246000 RLU | 0.04 | 0.13 | 0.71 |  |  | 
3 | DGL650 (bispecific antibody) chain 1: EVQLLESGGGLVQPGGSLRLSCAASGFTFSLAWMNWVRQAPGKGLEWVSSISSSTSYIYYADSVKGRFTISRDNSKNTLYLQMNSLRAEDTAVYYCARAVAAGGFFWGLDQWGQGTLVTVTSSGGGGSGGGGSGGGGSQSVLTQPPSASGTPGQRVTISCSGSRSNIGSNSVHWYQQLPGTAPKLLIYGNSNRPSGVPDRFSGSKSGTSASLAISGLRSEDEADYYCQSYDSSLNDHVVFGGGTKLTVLDKTHTCPPCPAPEAAGAPSVFLFPPKPKDTLMISRTPEVTCVVVDVSHEDPEVKFNWYVDGVEVHNAKTKPREEQYNSTYRVVSVLTVLHQDWLNGKEYKCKVSNKALPAPIEKTISKAKGQPREPQVCTLPPSRDELTKNQVSLSCAVKGFYPSDIAVEWESNGQPENNYKTTPPVLDSDGSFFLVSKLTVDKSRWQQGNVFSCSVMHEALHNHYTQKSLSLSPGWSHPQFEK chain 2: not shown | 43% | 801000 RLU | 0.08 | 0.15 | 0.65 |  |  | 
4 | DGL646 (bispecific antibody) chain 1: EVQLLESGGGLVQPGGSLRLSCAASGFTFSNAWMNWVRQAPGKGLEWVSSISSSSSYIYYADSVKGRFTISRDNSKNTLYLQMNSLRAEDTAVYYCARAVGASTVYFGLDQWGQGTLVTVTSSGGGGSGGGGSGGGGSQSVLTQPPSASGTPGQRVTISCSGSRSNIGSNSVHWYQQLPGTAPKLLIYGNSNRPSGVPDRFSGSKSGTSASLAISGLRSEDEADYYCQSYDSSLNDHVVFGGGTKLTVLDKTHTCPPCPAPEAAGAPSVFLFPPKPKDTLMISRTPEVTCVVVDVSHEDPEVKFNWYVDGVEVHNAKTKPREEQYNSTYRVVSVLTVLHQDWLNGKEYKCKVSNKALPAPIEKTISKAKGQPREPQVCTLPPSRDELTKNQVSLSCAVKGFYPSDIAVEWESNGQPENNYKTTPPVLDSDGSFFLVSKLTVDKSRWQQGNVFSCSVMHEALHNHYTQKSLSLSPGWSHPQFEK chain 2: not shown | 18% | 333000 RLU | 0.06 | 0.15 | 0.8 |  |  | 

Next, values leading:

Row | % Emax BMP9 [1] | Emax (RLU) [1] | Abs450 1 nM [2] | Abs450 10 nM [2] | Abs450 100 nM [2] | % Emax BMP9 [3] | EC50 [3] | Emax (RLU) [3] | Binder
5 | 83% | 1.53e+06 RLU | 0.09 | 0.47 | 1.4 |  |  |  | DGL640 (bispecific antibody) chain 1: EVQLLESGGGLVQPGGSLRLSCAASGFTFSDYYMTWIRQAPGKGLEWVSSISGGSTYYADSRKGRFTISRDNSENTLYLQMNSLRAEDTAVYYCARWETSGGYYGSGGLTIWGQGTLVTVSSGGGGSGGGGSGGGGSQSVLTQPPSASGTPGQRVTISCTGSSSNIGAGYDVHWYQQLPGTAPKLLIYRSNQRPSGVPDRFSGSKSGTSASLAISGLRSEDEADYYCSSYAGNYNLVFGGGTKLTVLDKTHTCPPCPAPEAAGAPSVFLFPPKPKDTLMISRTPEVTCVVVDVSHEDPEVKFNWYVDGVEVHNAKTKPREEQYNSTYRVVSVLTVLHQDWLNGKEYKCKVSNKALPAPIEKTISKAKGQPREPQVCTLPPSRDELTKNQVSLSCAVKGFYPSDIAVEWESNGQPENNYKTTPPVLDSDGSFFLVSKLTVDKSRWQQGNVFSCSVMHEALHNHYTQKSLSLSPGWSHPQFEK chain 2: not shown
6 | 14% | 255000 RLU | 0.08 | 0.09 | 0.5 |  |  |  | DGL642 (bispecific antibody) chain 1: EVQLLESGGGLVQPGGSLRLSCAASGFTFSNAWMNWVRQAPGKGLEWVSSISSSSSYIYYADSVKGRFTISRDNSKNTLYLQMNSLRAEDTAVYYCARSNGSGGSTYPLDLWGQGTLVTVTSSGGGGSGGGGSGGGGSQSVLTQPPSASGTPGQRVTISCSGSRSNIGSNSVHWYQQLPGTAPKLLIYGNSNRPSGVPDRFSGSKSGTSASLAISGLRSEDEADYYCQSYDSSLNDHVVFGGGTKLTVLDKTHTCPPCPAPEAAGAPSVFLFPPKPKDTLMISRTPEVTCVVVDVSHEDPEVKFNWYVDGVEVHNAKTKPREEQYNSTYRVVSVLTVLHQDWLNGKEYKCKVSNKALPAPIEKTISKAKGQPREPQVCTLPPSRDELTKNQVSLSCAVKGFYPSDIAVEWESNGQPENNYKTTPPVLDSDGSFFLVSKLTVDKSRWQQGNVFSCSVMHEALHNHYTQKSLSLSPGWSHPQFEK chain 2: not shown
7 |  |  |  |  |  | 1% | 0.1 nM | 35200 RLU | DGL268 (bispecific antibody) chain 1: EVQLLESGGGLVQPGGSLRLSCAASGFTFSIYAMSWVRQAPGKGLEWVSAISGSGGSTYYADSVKGRFTISRDNSKNTLYLQMNSLRAEDTAVYYCARDFDYWGQGTLVTVTSSGGGGSGGGGSGGGGSQSVLTQPPSASGTPGQRVTISCSGSSSNIGSNYVYWYQQLPGTAPKLLIYGNINRPSGVPDRFSGSKSGTSASLAISGLRSEDEADYYCAAWDDSLNGRVFGGGTKLTVLGGGGSGGGGSGGGGSGVECPPCPAPPVAGPSVFLFPPKPKDTLMISRTPEVTCVVVDVSHEDPEVQFNWYVDGVEVHNAKTKPREEQFNSTFRVVSVLTVVHQDWLNGKEYKCKVSNKGLPAPIEKTISKTKGQPREPQVYTLPPCREEMTKNQVSLWCLVKGFYPSDIAVEWESNGQPENNYKTTPPMLDSDGSFFLYSKLTVDKSRWQQGNVFSCSVMHEALHNHYTQKSLSLSPG chain 2: EVQLLESGGGLVQPGGSLRLSCAASGFTFSIYAMSWVRQAPGKGLEWVSAISGSGGSTYYADSVKGRFTISRDNSKNTLYLQMNSLRAEDTAVYYCARDFDYWGQGTLVTVTSSGGGGSGGGGSGGGGSQSVLTQPPSASGTPGQRVTISCSGSSSNIGSNYVYWYQQLPGTAPKLLIYGNINRPSGVPDRFSGSKSGTSASLAISGLRSEDEADYYCAAWDDSLNGRVFGGGTKLTVLGGGGSGGGGSGGGGSGVECPPCPAPPVAGPSVFLFPPKPKDTLMISRTPEVTCVVVDVSHEDPEVQFNWYVDGVEVHNAKTKPREEQFNSTFRVVSVLTVVHQDWLNGKEYKCKVSNKGLPAPIEKTISKTKGQPREPQVCTLPPSREEMTKNQVSLSCAVKGFYPSDIAVEWESNGQPENNYKTTPPMLDSDGSFFLVSKLTVDKSRWQQGNVFSCSVMHEALHNHYTQKSLSLSPG

Source: US20250002588A1 (DIAGONAL THERAPEUTICS, published 2025)
